A short description of series [1]: Specific activity of the Prolia conjugate: biological activity by methods known in the art and total protein (Bradford). The method, then: The free Prolia is removed by means of cation exchange chromatography (CEC). The reaction mixture is diluted with 20 ml Buffer A (50 mM Hepes, pH 6.5) and loaded onto a 20 ml HiPrep SPFF 16/10 column (GE Healthcare, Fairfield, CT) pre-equilibrated with Buffer A. Then the column is eluted with Buffer B (50 mM Hepes, 1 M NaCl, pH 6.5). Free Prolia is eluted by washing the column with 25 % Buffer B and the conjugate at 50 % Buffer B. The conductivity of the conjugate containing fractions is subsequently raised to -190 mS/cm with Buffer C (50 mM Hepes, 5 M NaCl, pH 6.9) and loaded onto a 20 ml HiPrep Butyl FF 16/10 column (GE Healthcare, Fairfield, CT) pre-equilibrated with Buffer D (50 mM Hepes, 3 M NaCl, pH 6.9). Free PSA-reagent is washed out within 5 CV Buffer D. Subsequently, the conjugate is eluted with 100 % Buffer E (50 mM Hepes, pH 6.9). The conjugate containing fractions are concentrated by UF/DF using a 10 kD membrane made of regenerated cellulose (88 cm2, cut-off 10 kD, Millipore). The final diafiltration step is performed against histidine buffer, pH 6.9 containing 150 mM NaCl. The preparation is analytically characterized by measuring total protein (Bradford) and biological activity according to methods known in the art. For the PSA-Prolia conjugate a specific activity of > 50 % in comparison to native Prolia is determined. The conjugate is additionally analytically characterized by Size Exclusion HPLC using a Agilent 1200 HPLC system equipped with a Shodex KW 803 column under conditions as previously described (Kolarich et al, Transfusion 2006;46:1959-77). It is shown that the preparation contains no free Prolia.
The free Prolia is removed by means of cation exchange chromatography (CEC). The reaction mixture is diluted with 20 ml Buffer A (50 mM Hepes, pH 6.5) and loaded onto a 20 ml HiPrep SPFF 16/10 column (GE Healthcare, Fairfield, CT) pre-equilibrated with Buffer A. Then the column is eluted with Buffer B (50 mM Hepes, 1 M NaCl, pH 6.5). Free Prolia is eluted by washing the column with 25 % Buffer B and the conjugate at 5 0% Buffer B. The conductivity of the conjugate containing fractions is subsequently raised to -190 mS/cm with Buffer C (50 mM Hepes, 5 M NaCl, pH 6.9) and loaded onto a 20 ml HiPrep Butyl FF 16/10 column (GE Healthcare, Fairfield, CT) pre-equilibrated with Buffer D (50 mM Hepes, 3 M NaCl, pH 6.9). Free PSA-reagent is washed out within 5 CV Buffer D. Subsequently the conjugate is eluted with 100% Buffer E (50 mM Hepes, pH 6.9). The conjugate containing fractions are concentrated by UF/DF using a 10 kD membrane made of regenerated cellulose (88 cm^2, cut-off 10 kD / Millipore). […] For the PSA-Prolia conjugate a specific activity of > 50 % in comparison to native Prolia is determined. […]

For series [2] the following is noted: Harrison and Jollow 1987; cited from earlier work.
The conditions of series [3]: in vitro studies; Bombhard and Herbold 2005; cited from earlier work.
Series [4] relates to rats. The settings on record: long-term dietary treatment of rats; Goodman et al. 1984; cited from earlier work.

Regarding “PEG-Prolia conjugate: Prolia PEGylated with a linear 20 kD aminooxy PEGylation reagent, m-toluidine as catalyst”, the “specific activity in comparison to native Prolia” value in series [1] (Reference Example 44 Method 1, alternative (oxidation, then m-toluidine and 20 kD aminooxy-PEG, 5-fold)) is listed as above 50%; in series [1] (Reference Example 44 Method 3, alternative (simultaneous, 20 kD aminooxy-PEG, 5-fold)), above 50%.
Consider “PSA-Prolia conjugate: Prolia polysialylated with 20 kD aminooxy-PSA reagent, m-toluidine as catalyst”, for which the “specific activity in comparison to native Prolia” value is given as above 50% in series [1] (Reference Example 30 Method 1, alternative (oxidation, then m-toluidine and 20 kD aminooxy-PSA, 5-fold)); above 50% in series [1] (Reference Example 30 Method 3, alternative (simultaneous, 20 kD aminooxy-PSA, 5 fold)).
In the case of `Nc1ccccc1` [aniline], the methemoglobinemia result in series [2] is “induce methemoglobinemia”. Also, the “chromosome mutations / genotoxic activity” value in series [3] was “potential to induce chromosome mutations”. Besides, the “tumors in the spleen” value in series [4] is “induce tumors in the spleen”.

These data come from EP3505186B1, “NUCLEOPHILIC CATALYSTS FOR OXIME LINKAGE” (Takeda Pharmaceutical Company Limited, priority 2010, dated 2012).
